# Results: patent US5719021A, “Protein activation” (University of Medicine and Dentistry of New Jersey, dated 1998)
# Where a chain is given by its changes, count along the chain named. Like-named read-outs stand apart in the source and are kept apart here.
# T1: denatured subtilisin E (Bacillus subtilis, UniProt P04189)
# T1 construct: 77 residues for the amino-terminal pro-peptide plus 275 residues for the mature subtilisin; made in house
# T1 sequence (P04189 107-381): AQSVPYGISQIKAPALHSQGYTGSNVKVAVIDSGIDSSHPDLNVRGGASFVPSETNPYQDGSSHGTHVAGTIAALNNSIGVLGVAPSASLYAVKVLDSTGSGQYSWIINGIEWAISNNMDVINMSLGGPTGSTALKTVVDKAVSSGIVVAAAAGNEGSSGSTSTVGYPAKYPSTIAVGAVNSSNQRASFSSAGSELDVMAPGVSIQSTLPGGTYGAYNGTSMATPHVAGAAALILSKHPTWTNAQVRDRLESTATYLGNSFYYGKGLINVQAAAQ
# T2: subtilisin E (Bacillus subtilis, UniProt P04189)
# T2 construct: 77 residues for the amino-terminal pro-peptide plus 275 residues for the mature subtilisin; made in house
# T2 sequence (P04189 107-381): T1 sequence (P04189 107-381)
# T3: pro-subtilisin E (Bacillus subtilis, UniProt P04189)
# T3 construct: Pro-subtilisin consists of 352 amino acid residues; 77 residues for the amino-terminal pro-peptide plus 275 residues for the mature subtilisin; E. coli OmpA signal peptide (N); made in house; host or cells: E. coli (inclusion bodies)
# T3 sequence (P04189 30-381 limits assumed): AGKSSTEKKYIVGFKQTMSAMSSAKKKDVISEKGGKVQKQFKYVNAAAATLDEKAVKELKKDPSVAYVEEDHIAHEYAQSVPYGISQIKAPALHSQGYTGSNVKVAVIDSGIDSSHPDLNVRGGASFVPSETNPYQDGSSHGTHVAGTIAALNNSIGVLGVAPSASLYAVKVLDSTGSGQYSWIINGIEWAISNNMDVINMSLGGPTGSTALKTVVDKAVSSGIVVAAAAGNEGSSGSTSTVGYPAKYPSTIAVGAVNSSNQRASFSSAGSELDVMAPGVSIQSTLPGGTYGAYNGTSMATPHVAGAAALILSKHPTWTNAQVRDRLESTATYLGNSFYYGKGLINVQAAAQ
# T4: denatured subtilisin BPN' (Bacillus amyloliquefaciens, UniProt P00782)
# T4 sequence (P00782 108-382): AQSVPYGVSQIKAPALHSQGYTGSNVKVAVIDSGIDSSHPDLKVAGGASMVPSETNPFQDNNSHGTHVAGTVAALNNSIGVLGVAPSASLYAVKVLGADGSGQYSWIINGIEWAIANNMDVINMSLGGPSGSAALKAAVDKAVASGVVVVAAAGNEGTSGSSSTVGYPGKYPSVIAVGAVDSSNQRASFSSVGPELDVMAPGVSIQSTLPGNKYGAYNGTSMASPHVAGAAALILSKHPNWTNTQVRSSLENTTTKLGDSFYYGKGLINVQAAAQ
# T5: subtilisin BPN' (Bacillus amyloliquefaciens)
# T5 chain: T4 sequence (P00782 108-382)
# T6: subtilisin E (Bacillus subtilis)
# T6 chain: T1 sequence (P04189 107-381) with A85S
# B1: pro-63-mer (from -1 to -63) for subtilisin BPN' (peptide)
# peptide: KQTMSTMSAAKKKDVISEKGGKVQKQFKYVDAASATLNEKAVKELKKDPSVAYVEEDHVAHAY
# B2: pro-subtilisin E: pro-subtilisin produced in E. coli as inclusion bodies, solubilized in 6M guanidine-HCl and purified in 5M urea (protein)
# chain: T3 sequence (P04189 30-381 limits assumed) with A162S
# B3: pro-subtilisin E with the Asp32 to Asn active site mutation: pro-subtilisin E with active site mutation Asp32 to Asn, used as exogenous pro-peptide source (protein, UniProt P04189 30-381, looked up, variant D32N)
# pro-form: T3 sequence (P04189 30-381 limits assumed) with D109N
# modifications: pro-form
# B4: synthetic pro-peptide of -1 to -77 for subtilisin E (peptide)
# peptide: AGKSSTEKKYIVGFKQTMSAMSSAKKKDVISEKGGKVQKQFKYVNAAAATLDEKAVKELKKDPSVAYVEEDHIAHEY
# modifications: not checked
# B5: pro-77-mer (from -1 to -77) for subtilisin BPN' (peptide)
# peptide: B4 peptide with S5N, T6G, A20T, S23A, N45D, A48S, D52N, I73V, E76A
# B6: Streptomyces subtilisin inhibitor: inhibitor tested on processing of pro-subtilisin to active subtilisin (protein)
# chain: DAPSALYAPSALVLTVGKGVSATTAAPERAVTLTCAPGPSGTHPAAGSACADLAAVGGDLNALTRGEDVMCPMVYDPVLLTVDGVWQGKRVSYERVFSNECEMNAHGSSVFAF
# B7: pro-68-mer (from -1 to -68) for subtilisin BPN' (peptide)
# peptide: YIVGFKQTMSTMSAAKKKDVISEKGGKVQKQFKYVDAASATLNEKAVKELKKDPSVAYVEEDHVAHAY
# B8: processed subtilisin: active subtilisin obtained by in vitro processing of pro-subtilisin E (protein, UniProt P04189 107-381, looked up)
# Subtilisin E: T1 sequence (P04189 107-381)
# How the values were obtained:
# denatured subtilisin E = molecular target: T1, denatured subtilisin E; assay: Renaturation (intermolecular refolding) of denatured subtilisin E with exogenously added pro-peptide; format: biochemical
# Excerpt: The studies established that denatured subtilisin (without the pro-peptide)cannot be renatured to active subtilisin.
# The pro-peptide of 77 residues for subtilisin E (see FIG. 1) was synthesized.
# (§1) Other synthetic activating sequences were reacted with a selected polypeptide, in this case subtilisin, as described by Ohta et al. in Molecular Microbiology, 5(6), 1507-1510 (1991), which is incorporated herein by reference (and cofiled herewith). Active subtilisin was obtained.
# (§2) The concentration of the activating peptide is preferably in a molar ratio of one of the activating protein to the polypeptide to be activated. At higher and lower concentration than 1 to 1, the renaturation yield was not as high; when the ratio exceeded 1, inhibition was observed. The activating peptide appears to act an inhibitor of the activated polypeptide.
# (§3) Different concentrations of the different synthetic peptides were used a shown in the above-cited reference. The mixture of synthetic and polypeptide was dialyzed against 10 mM sodium phosphate, pH 7.0, that also contained 0.5M (NH4)2 SO4, 2 mM CaCl2 and 10 μm of 3,5-bis-trifluoromethylbenzeneboronic acid (BTFBA), a serine protease inhibitor.
# subtilisin E = molecular target: T2, subtilisin E; assay: Competitive inhibition of subtilisin E by synthetic pro-peptides; format: biochemical; conditions: competitive inhibitor
# Excerpt: 5. The synthetic pro-peptide is able to specifically bind to the active center of subtilisin.
# pro-subtilisin E = molecular target: T3, pro-subtilisin E; assay: In vitro processing of denatured pro-subtilisin to active subtilisin by dialysis; format: biochemical; conditions: for Processing/conversion to active mature subtilisin: in vitro dialysis, e.g. 0.2M sodium phosphate pH 6.2
# Excerpt: Pro-subtilisin thus produced was solubilized in 6M guanidine-HCl and purified to homogeneity in the presence of 5M urea.
# Its N-terminal amino acid sequence and the mobility in SDS-polyacrylamide gel electrophoresis were identical to those of authentic subtilisin.
# It is interesting to note that the processing reaction to active subtilisin was independent of the pro-subtilisin concentration. Thus, the conversion is a first-order reaction.
# The pro-subtilisin was in solution in a denaturant like guanidine-HCl or urea to prevent autoprocesssing to active subtitisin. For best results, the work was carried out with urea.
# The method for activating the polypeptide comprises contacting it with the selected activating peptide. For pro-subtilisin E the efficiency of the conversion to active subtilisin E is independent of the pro-subtilisin concentration, indicating a first order reaction. The reaction is carried out in an appropriate buffer medium. […] At higher concentration, the ammonium sulfate appears to inhibit the proper folding of the polypeptide. When sulfate is used as the anion, there may be used as cations Na^+, K^+, and Li^+ or NH4^+ and equivalent others. Most efficient processing was obtained with 0.5M (NH4)2 SO4 in a 10 mM Tri-HCl buffer (at pH7.0), containing 1 mM CaCl2. Under these conditions, 1 mg of pro-subtilisin produced 89 U of subtilisin activity.
# [1] = molecular target: T4, denatured subtilisin BPN'; assay: Renaturation of denatured subtilisin BPN' with exogenously added pro-peptide; format: biochemical; conditions: for Efficiency of renaturation of denatured subtilisin BPN' relative to the pro-77-mer: relative to pro-77-mer
# Excerpt: Similarly, pro-peptides corresponding to -1 to -77, -1 to -68 and -1 to -63 for subtilisin BPN' were synthesized (See FIG. 1).
# as §1, §2, §3
# subtilisin BPN' = molecular target: T5, subtilisin BPN'; assay: competitive inhibition of enzyme activity
# subtilisin Carlsberg = molecular target: T7, subtilisin Carlsberg (Bacillus licheniformis, UniProt P00780); assay: Renaturation of acid-denatured subtilisin Carlsberg with exogenously added pro-peptide; format: biochemical
# T7 construct: denatured subtilisin (without the pro-peptide)cannot be renatured to active subtilisin
# Excerpt: This pro-peptide variant was effective even though there are quite a number of amino acid substitutions in both subtilisins BPN' and Carlsberg when compared with subtilisin E (See FIG. 1).
# [2] = molecular target: T6, subtilisin E (Bacillus subtilis); assay: competitive inhibition of enzyme activity
molecule,measurement,setting,value
synthetic pro-peptide of -1 to -77 for subtilisin E: synthesized pro-peptide of 77 residues (-1 to -77) for subtilisin E,Refolding/renaturation of denatured subtilisin E to active enzyme,denatured subtilisin E,able to intermolecularly complement the refolding
same,Ki,subtilisin E; listed as synthetic pro-peptide,540 nM
same,Ki,subtilisin E; read-out: Ki as competitive inhibitor of subtilisin E,≤ 540 nM
"O=S(=O)(F)Cc1ccccc1 [phenylmethanesulfonyl fluoride, reference compound]",Inhibition of the processing of pro-subtilisin to active subtilisin,pro-subtilisin E,unable to inhibit
B1,Efficiency of renaturation of denatured subtilisin BPN' relative to the pro-77-mer,[1],30-40%
same,Ki,subtilisin BPN',790 nM
B2,Subtilisin activity produced from 1 mg of pro-subtilisin,"pro-subtilisin E; 0.5M (NH4)2SO4 in 10 mM Tris-HCl pH 7.0, 1 mM CaCl2",89 U
same,Conversion efficiency of pro-subtilisin to active subtilisin,pro-subtilisin E; calculated from 89 U versus 470 U,approximately 20%
same,Theoretical maximum activity for 1 mg of pro-subtilisin E,pro-subtilisin E; estimated,470 U
same,Processing/conversion to active mature subtilisin,pro-subtilisin E,converted to active subtilisin
B3,Renaturation of acid-denatured subtilisin BPN',[1]; acid-denatured,able to renature
same,Refolding/renaturation of denatured subtilisin E to active enzyme,denatured subtilisin E,active subtilisin is formed
same,Renaturation of acid-denatured subtilisin Carlsberg,subtilisin Carlsberg,able to renature
same,Processing/conversion to active mature subtilisin,pro-subtilisin E; listed as pro-subtilisin with an active site mutation (Asp32 to Asn),cannot be autoprocessed
same,Processing/conversion to active mature subtilisin,pro-subtilisin E; listed as pro-subtilisin with an active-site mutation (aspartic acid at position 32 to asp),unable to be processed
B4,Ki,[2],< 540 nM
B5,Effectiveness for the renaturation of denatured subtilisin BPN',[1],most effective
same,Ki,subtilisin BPN',380 nM
B6,Inhibition of the processing of pro-subtilisin to active subtilisin,pro-subtilisin E,unable to inhibit
B7,Efficiency of renaturation of denatured subtilisin BPN' relative to the pro-77-mer,[1],30-40%
same,Ki,subtilisin BPN',760 nM
B8,Specific activity of processed subtilisin relative to authentic subtilisin E,pro-subtilisin E,approximately half
